According to patent US20240382677A1 (Regeneron, published 2024):

T1: monkey PD-1 with mFc (monkey PD-1-mFc) (monkey)
T1 construct: also called monkey PD-1 dimer; MfPD-1 dimer
T1 chain: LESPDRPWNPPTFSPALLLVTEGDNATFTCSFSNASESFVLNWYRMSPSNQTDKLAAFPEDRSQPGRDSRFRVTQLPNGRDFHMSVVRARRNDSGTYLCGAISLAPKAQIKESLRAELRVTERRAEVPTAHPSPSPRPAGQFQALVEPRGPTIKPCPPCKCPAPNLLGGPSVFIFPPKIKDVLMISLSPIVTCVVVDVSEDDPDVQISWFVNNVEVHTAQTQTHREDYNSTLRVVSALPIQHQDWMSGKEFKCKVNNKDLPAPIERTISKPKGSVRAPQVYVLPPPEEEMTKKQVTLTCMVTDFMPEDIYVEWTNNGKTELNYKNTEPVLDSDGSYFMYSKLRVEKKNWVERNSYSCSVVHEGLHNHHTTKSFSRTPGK

T2: recombinant cynomolgus monkey PD-1 expressed with a C-terminal myc-myc-hexahistidine tag (cynomolgus monkey)
T2 construct: also called MfPD-1-MMH; MIPD-1-MMH
T2 chain: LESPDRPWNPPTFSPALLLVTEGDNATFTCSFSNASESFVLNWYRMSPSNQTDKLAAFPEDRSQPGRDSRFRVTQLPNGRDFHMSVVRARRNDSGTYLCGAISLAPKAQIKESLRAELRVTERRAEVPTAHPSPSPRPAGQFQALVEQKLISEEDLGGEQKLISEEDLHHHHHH


Columns and labels:
[1] = biological target: T1, monkey PD-1 with mFc (monkey PD-1-mFc); assay: SPR 37C, mAb captured;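 also: Real-time binding of antigen to purified anti-PD-1 antibodies, measured by surface plasmon resonance on a Biacore 4000 or T200 instrument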
[2] = biological target: recombinant human PD-1 expressed with a C-terminal human IgG1 Fc tag (hPD-1-hFc) (human); assay: SPR Biacore 3000, captured hPD-L1-mFc
recombinant human PD-1 expressed with a C-terminal human IgG1 Fc tag (hPD-1-hFc) (human), sequence (chain, as listed by the source limits assumed): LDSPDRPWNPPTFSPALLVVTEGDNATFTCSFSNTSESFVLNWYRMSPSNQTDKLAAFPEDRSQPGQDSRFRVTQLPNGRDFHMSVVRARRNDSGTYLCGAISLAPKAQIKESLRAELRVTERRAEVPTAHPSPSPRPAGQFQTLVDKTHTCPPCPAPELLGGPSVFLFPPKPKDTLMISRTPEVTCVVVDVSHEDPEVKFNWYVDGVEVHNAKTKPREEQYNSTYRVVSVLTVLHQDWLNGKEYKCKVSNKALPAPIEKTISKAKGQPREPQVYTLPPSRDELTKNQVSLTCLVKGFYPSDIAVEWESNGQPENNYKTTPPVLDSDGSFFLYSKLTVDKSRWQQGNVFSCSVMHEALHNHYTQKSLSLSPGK

[3] = biological target: T1, monkey PD-1 with mFc (monkey PD-1-mFc); assay: SPR 25C, mAb captured
[4] = biological target: T3, recombinant human PD-1 expressed with a C-terminal myc-myc-hexahistidine tag (human); assay: SPR Biacore, mAb captured, 37 C
T3 construct: monomeric reagent; also called hPD-1-MMH; human PD-1-MMH

[5] = biological target: T4, recombinant human PD-1 dimer expressed with a C-terminal mouse IgG2a Fc tag (hPD-1-mFc) (human); assay: competition ELISA, 1.5 nM hPD-1-mFc, coated hPD-L1-hFc
T4 construct: also called human PD-1-mFc

[6] = biological target: T5, polyclonal rabbit anti-mouse antibody (GE Catalog #BR-1008-38) coupled to the CM5 Biacore sensor surface (rabbit); assay: SPR Biacore 3000, antibody alone over the anti-mouse Fc capture surface of the hPD-L1-mFc assay (background control)
T5 construct: also called anti-mouse Fc capture surface

[7] = biological target: T6, human PD-1 dimer (human PD-1-mFc or human PD-1-hFc) (human, Fc-mediated homodimer; one copy of the chain is given.); assay: SPR Biacore, mAb captured, 25 C
T6 construct: also called hPD-1-mFc; hPD1-hFc; not shown: The C-terminal Fc tag
T6 sequence (chain, as listed by the source limits assumed): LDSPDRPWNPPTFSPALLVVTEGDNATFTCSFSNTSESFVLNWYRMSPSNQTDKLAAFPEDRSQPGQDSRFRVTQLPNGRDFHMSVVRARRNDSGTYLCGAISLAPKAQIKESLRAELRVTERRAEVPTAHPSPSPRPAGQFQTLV

[8] = biological target: T6, human PD-1 dimer (human PD-1-mFc or …); assay: SPR Biacore, mAb captured, 37 C
[9] = biological target: T2, recombinant cynomolgus monkey PD-1 …; assay: SPR Biacore, mAb captured, 37 C
[10] = biological target: T2, recombinant cynomolgus monkey PD-1 …; assay: SPR Biacore, mAb captured, 25 C
[11] = biological target: T4, recombinant human PD-1 dimer expressed …; assay: competition ELISA, 1.5 nM hPD-1-mFc, coated hPD-L1-hFc; * below assay bottom
[12] = biological target: PD-1 chimera hPD1-hCD300a on Jurkat/AP1-Luc cells (human); assay: cell-based or functional assay
[13] = biological target: T4, recombinant human PD-1 dimer expressed …; assay: BLI Octet Red 96, captured hPD-L1-hFc

100 nM Monkey PD-1-mFc Bound [1] [RU] | t½ [1] [min] | binding of the mixture of 100 nM hPD-1-hFc and 500 nM antibody [2] [RU] | 100 nM Monkey PD-1-mFc Bound [3] [RU] | t½ [3] [min] | Binder | also measured
46 | 23 | 0 | 52 | 104 | H4xH9120P2 (antibody, V domains shown, human IgG4 Fc with 2 or more amino acid changes (US20100331527)) VH: QVQLVQSGAEVKRPGASVKVSCKASGYTFTSFYMYWVRQAPGQGLEWMGIINPSDGSTSNAQKFQGRVTMTRDTSTSTVYMELSSLRSEDTAVYYCARRVAGDIFDIWGQGTMVTVSS VL: not shown | –
– | – | – | – | – | H4xH9120P2 (antibody, V domains shown, human IgG4 Fc with 2 or more amino acid changes as in US20100331527 (H4xH prefix)) VH: QVQLVQSGAEVKRPGASVKVSCKASGYTFTSFYMYWVRQAPGQGLEWMGIINPSDGSTSNAQKFQGRVTMTRDTSTSTVYMELSSLRSEDTAVYYCARRVAGDIFDIWGQGTMVTVSS VL: not shown | kon [4]: 68600 M⁻¹ s⁻¹
36 | 45 | -1 | 31 | 129 | H4H9019P (antibody, human IgG4, V domains shown, human IgG4 Fc; also called H4xH9019P) VH: EVQLVESGGGVVRPGGSLRLSCAASGFTFDDYGMSWVRQVPGKGLEWVSGISWNDGKTVYAESVKGRFIISRDNAKNSLYLEMNSLRAEDTALYYCARDWQYLIERYFDYWGQGTLVTVSS VL: not shown | % blocking at 200 nM antibody [5]: 96%
52 | 15 | -3 | 74 | 81 | H4xH9135P2 (antibody, V domains shown, human IgG4 Fc with 2 or more amino acid changes (US20100331527)) VH: EVQLVESGGSVVRPGGSLRLSCVVSGFTFEDYGLSWVRQIPGKGLEWVSGISWTGGNTGYADSVKGRFTISRDNAKNSLYLQMNSLRAEDTALYHCTRDRQWLMQWYFDYWGQGTLVTVSS VL: not shown | –
– | – | 9 | – | – | H4H9048P2 (antibody, human IgG4 S228P, kappa, V domains shown, human IgG4 Fc) VH: QVQLVQSGAEVKRPGSSVKVSCKVSGVTFRNFAIIWVRQAPGQGLEWMGGIIPFFSAANYAQSFQGRVTITPDESTSTAFMELASLRSEDTAVYYCAREGERGHTYGFDYWGQGTLVTVSS VL: not shown | 500 nM of anti-PD-1 monoclonal antibody (RU) [6]: -7 RU; % Blocking [2]: 91%
– | – | – | – | – | H4xH9008P (antibody, V domains shown, human IgG4 Fc with 2 or more amino acid changes as in US20100331527 (H4xH prefix); also called H4x19008P) VH: EVQLVESGGGLVRPGGSLRLSCAASGFTFSTYAMAWVRQTPGKGLEGVSAIGGSGDSTYYVDSVKGRFTISRDNSKSTLFLQMNSLRAEDTAVYYCVKVRNYDGSFDIWGQGTMVTVSS VL: not shown | Kd [7]: 0.786 nM
– | – | – | – | – | H2aM7794N (antibody, V domains shown, human variable regions with mouse IgG2a Fc (H2aM prefix); also called H2M7794N) VH: QLQLQESGPDLVKPSDTLSLTCTVSDDSISSTTYYWAWIRQPPGKGLEWIGSMSYNGNNYYNPSLKSRVAISAGTSQKQFSLKLTSVTAADTAVYHCARHLGYNGNWYPFDFWGQGILVTVSS VL: not shown | t½ [8]: 65 min
– | – | – | – | – | H2aM7788N (antibody, mouse IgG2a, V domains shown, human variable regions with mouse IgG2a Fc (H2aM prefix); also called H2M7788N; H2aM7788M) VH: EVQLVESGGGLVQPGGSLRLSCGASGFTFRNYDMHWVRQITGKGLEWVSAIGSAGDTYYPDSVKGRFTISRENAKNSLYLQMNSLRVGDTAVYYCTRDIHCSSTRCYGMDVWGQGTTVTVSS VL: not shown | t½ [9]: 3.6 min; kon [10]: 8530 M⁻¹ s⁻¹
– | – | – | – | – | H4xH9119P2 (antibody, V domains shown, human IgG4 Fc with 2 or more amino acid changes as in US20100331527 (H4xH prefix)) VH: EVQLVESGGGLVQPGRSLRLSCAASGFTFEDYAMHWVRQAPGKGLEWVSGIGWSNVKIGYADSVKGRFTISRDNVRNSLYLQMNSLRTEDTAFYYCVKAYTSMLTLYFDYWGQGTLVTVSS VL: not shown | koff [7]: 0.000152 s⁻¹
81 | 15 | – | 95 | 70 | H4xH9034P (antibody, V domains shown) VH: EVQLVESGGGVVRPGGSLRLSCTASGFTFDDYGMSWVRQAPGKGLEWISGIGWTGGRSSYADSVRGRFTISRDNAKNSLYLQMNSLGAEDTALYYCARDRQWLVQWYFDYWGQGTLVTVSS VL: not shown | IC50 [11]: < 0.75 nM
– | – | – | – | – | H4xH9034P (antibody, V domains shown, human IgG4 Fc with 2 or more amino acid changes as in US20100331527 (H4xH prefix); also called H4xH9034P2; H4xH8034P2) VH: EVQLVESGGGVVRPGGSLRLSCTASGFTFDDYGMSWVRQAPGKGLEWISGIGWTGGRSSYADSVRGRFTISRDNAKNSLYLQMNSLGAEDTALYYCARDRQWLVQWYFDYWGQGTLVTVSS VL: not shown | t½ [9]: 0.6 min
60 | 14 | -5 | 64 | 94 | H4xH9128P2 (antibody, V domains shown, human IgG4 Fc with 2 or more amino acid changes (US20100331527)) VH: QVQLQESGPGLVKPSETLSLTCTVSGGSISSYHWNWIRQSPGKGLEWIGYIYYIGSTDYNPSLESRVTISVDTSKNQFSLKLSSVTAADTAVYYCARVPVGATGASDVWGQGTMVTVSS VL: not shown | –
– | – | – | – | – | H2aM7780N (antibody, mouse IgG2a, V domains shown, mouse IgG2a Fc; human variable regions; also called H2M7780N) VH: QVQLVESGGGVVQSGRSLRLSCAASGFTFSSYGMHWVRQAPGKGLEWVAVIWYDGSNIYYSDSVKGRFTISRANSKNTLYLQMNSLRAEDTAVYYCARPGHWNYFFEYWGQGTLVTVSS VL: DIQMTQSPSSLSASVGDRVTITCRASQSINNYLNWYQQKPGKAPKLLIYTASSLQSGVPSRFSGSGSGTDFTLTISSLQPEDFATYYCQQSYSTPPLTFGQGTQLEIK | Concentration (M) of Antibody at 150% activation [12]: 6.62e-09 M; binding of the mixture of 100 nM hPD-1-mFc and 500 nM antibody [13]: -0.01 nm
– | – | – | – | – | H2aM7796N (antibody, mouse IgG2a, V domains shown, mouse IgG2a Fc; also called H2M7796N) VH: QVQLVESGGGVVQPGRSLRLSCAASGFTFSSYGMHWVRQAPGKGLEWVAIIWSDGDSEYNLDSVKGRFTISRDNSKNTLYLQMNSLRVEDSAVYYCARDRDLEDIWGQGTMVTVSS VL: DIQMTQSPSSLSASVGDRVTITCRASQGIRNDLGWYQQKPGKAPKRLIYAASNLQSGVPSRFSGSGSGTEFTLTISSLQPEDFATYYCLQHNSYPLTFGGGTKVEIK | binding result [10]: no binding (tested: 200 nM)
– | – | – | – | – | H4H7798N (antibody, human IgG4, V domains shown, human IgG4 Fc; also called M4H7798N; HAH7798N) VH: EVQLLESGGVLVQPGGSLRLSCAASGFTFSNFGMTWVRQAPGKGLEWVSGISGGGRDTYFADSVKGRFTISRDNSKNTLYLQMNSLKGEDTAVYYCVKWGNIYFDYWGQGTLVTVSS VL: DIQMTQSPSSLSASVGDSITITCRASLSINTFLNWYQQKPGKAPNLLIYAASSLHGGVPSRFSGSGSGTDFTLTIRTLQPEDFATYYCQQSSNTPFTFGPGTVVDFRR | Kd [10]: 3.8 nM
94 | 19 | -6 | 84 | 77 | H4xH9145P2 (antibody, V domains shown, human IgG4 Fc with 2 or more amino acid changes (US20100331527)) VH: QVQLVESGGGVVQPGRSLRLSCSASGFTFSAYAMHWVRQAPGKGLEWVAAISYGGSDKYYADSVKGRFTISRDNSKNTLYLQMNSLRTDDTAVYYCAKSAHWNFFFDYWGQGTLVTVSS VL: not shown | –
